Literature values as cited in PMC3103538.

Experiments:
Nterm0 = Nterm0 (UniProt position 248, RARKLQRMKQL)
Glu20 = Glu20 (UniProt position 268, KNYHLENEVAR)
Lys3 = Lys3 (UniProt position 251, KLQSMKQLEDK)
Lys28 = Lys28 (UniProt position 276, VARLKKLVGER)
Glu10 = Glu10 (UniProt position 258, LEDKVEELLSK)
Glu22 = Glu22 (UniProt position 270, YHLENEVARLK)
Glu11 = Glu11 (UniProt position 259, EDKVEELLSKN)
Glu32 = Glu32 (UniProt position 280, KKLVGER----)
Lys15 = Lys15 (UniProt position 263, EELLSKNYHLE)
His18 = His18 (UniProt position 266, LSKNYHLENEV)
Lys27 = Lys27 (UniProt position 275, EVARLKKLVGE)
Asp7 = Asp7 (UniProt position 255, MKQLEDKVEEL)
Glu6 = Glu6 (UniProt position 254, SMKQLEDKVEE)
Lys8 = Lys8 (UniProt position 256, KQLEDKVEELL)
Tyr17 = Tyr17 (UniProt position 265, LLSKNYHLENE)
Cterm32 = Cterm32 (UniProt position 280, KKLVGER----)

For “GCN4 leucine zipper (33-residue fragment, GCN4p1-type) (Saccharomyces cerevisiae; R1S; insertion of Gly0 before residue 1 (Arg1 substituted by the dipeptide Gly0-Ser1))”, the pKa (Nterm0) is listed as 7.88, the pKa (Glu20) is listed as 4.38 and the pKa (Lys3) is listed as 10.78. For the same substance, the pKa (Lys28) was 10.64, the pKa (Glu10) was 3.94 and the pKa (Glu22) was 4.2. The pKa (Glu11) was 4.05, the pKa (Glu32) was 4.62 and the pKa (Lys15) was 10.62. The pKa (His18) was 6.24, the pKa (Lys27) was 11.1 and the pKa (Asp7) was 3.48. For the same substance, the pKa (Glu6) was 4.6, the pKa (Lys8) was 11.26 and the pKa (Tyr17) was 9.82. For the same substance, the pKa (Cterm32) was 4.03.
